Assay results taken from patent publication US20200057058A1 (MIT, published 2020).

Columns and labels:
[1] = target: monomeric streptavidin variant mSA2; experiment: calculated from [P]T of the mSA2 binding curve fit and film thickness; design: Calculated Density (density of binding sites within a cross-sectional area of the film): unit not given here
Protocol: To determine the density of binding proteins within a single plane of each thin film, the concentration of accessible binding sites throughout the entire film—taken directly from the binding assay curve fits (Table 4)—was multiplied by the corresponding film thickness. When accounting for differences in film thickness, the density of oligomerized rcSso7d.SA proteins capable of binding mSA2 is found to increase […] with degree of oligomerization (Table 5). This calculated density decreases, though, between the 1×SP25k and 2×SP25k thin films, indicating a lower density of accessible binding sites in the protein domains of the oligomerized rcSso7d.SA conjugate film. The total number of predicted binding sites within each thin film assuming complete accessibility should be proportional to the […] of rcSso7d. SA in the conjugate with PNIPAM. Reasonable estimates for relative values of the predicted number of sites can thus be obtained by normalizing the weight fraction of rcSso7d. SA in each conjugate by the corresponding weight fraction in 1×SP25k. Comparing these predicted relative number of binding sites to the calculated values (FIG. 6C), all oligomeric rcSso7d.SA conjugates are found to contain fewer proteins capable of binding mSA2 than predicted. It is likely that this effect results from a combination of steric blocking of binding sites by bound mSA2 molecules as well as a lack of the free volume required to incorporate mSA2 molecules into the protein nanodomains at high degrees of binding. Despite the lower than expected binding capacity of the conjugate thin films, these biosensors contain approximately […] the quantity of accessible binding sites compared to rcSso7d.SA monolayers on a volumetric basis (Table 4). Recognizing that each plane (and a monolayer) of rcSso7d.SA proteins is roughly 1-2 nm thick,⁸⁰ the studied thin films can be determined to contain approximately 100 more planes of protein than a monolayer.

[2] = target: monomeric streptavidin variant mSA2; experiment: fluorescent binding assay, labeled mSA2; signal three standard deviations above blank
Protocol: (§1) The binding function of rcSso7d.SA oligomer-PNIPAM thin films was measured using fluorescently-labeled monomeric streptavidin (mSA2) and fluorescently-labeled streptavidin (SA). Details for the expression, purification, and fluorescent labeling of mSA2 are provided below. Samples were prepared by serial dilution of SA or mSA2 in PBS (pH 7.4), human urine (diluted to 50% v/v in PBS, pH 7.4), or blood serum (obtained as the supernatant by centrifuging whole blood at 1500×g for 10 minutes, then diluted to 50% v/v in PBS, pH 7.4). 0.5 μL drops of solutions containing serially diluted fluorescent mSA2 and fluorescent SA samples in PBS (pH 7.4) were gently applied to the surface of each bioconjugate thin film. Films were incubated in a sealed chamber saturated with water vapor at room temperature to prevent to prevent drying of the applied fluorescent samples. After 1 hour, films were thoroughly rinsed with water for 10 seconds (a time determined to be sufficient to remove unbound molecules from the film, see FIG. 33, dried under filtered airflow, and immediately analyzed for fluorescent signal. Fluorescence microscopy images were acquired at 4× magnification using a Cy5 filter set and exposure time of 5000 ms on an Olympus IX-81 inverted fluorescence microscope with an AxioCam HRC CCD camera. Fluorescent intensity was calculated using ImageJ software⁶⁷ by determining the average fluorescent signal in a rectangular area of the fluorescent image free of defects and occupying no less than half of the full sample application area.
Oligomerization of rcSso7d.SA also brings about a decrease in biosensor limit of detection (LOD). […] While all thin films display improvements up to threefold in LOD over the monolayer, the trend in LOD with respect to degree of oligomerization is non-monotonic. The primary factor that is expected to affect LOD in the studied biosensors is number of binding sites, as more binding sites enable a greater number of analyte molecules to be captured and shifts analyte-receptor equilibrium in favor of binding events.

streptavidin [3] = target: T1, streptavidin (UniProt P22629 37-163, limits assumed); experiment: fluorescent binding assay: Alexa Fluor 647-labeled streptavidin applied to the thin film; the sheet names the film 2xSP25k, the legend 2xSP17k
T1 construct: It was used without a stated label in the sandwich assays; also called SA
Protocol: as §1, with “Films were incubated in a sealed chamber saturated with water vapor at room temperature to prevent to prevent drying of the applied fluorescent samples.” left out

[4] = target: monomeric streptavidin variant mSA2; experiment: fluorescent binding assay, labeled mSA2 in PBS on thin film; quadratic curve fit
Protocol: as §1
Binding assays were performed by adding serially diluted solutions of fluorescently-labeled mSA2 to thin films of each studied conjugate (FIG. 6A). To maintain consistent transport properties between samples, each oligomer was conjugated to the same previously-synthesized 25 kDa PNIPAM sample. Analyte bound to thin films was quantified using fluorescence microscopy, and binding curves were fit to the collected mean fluorescent intensity (MFI) data using the following equation: […]

streptavidin [5] = target: T1, streptavidin; experiment: apparent Kd (Kd,app); fluorescent binding curve, labeled SA in 50% blood serum, 4 h; quadratic fit
[6] = target: monomeric streptavidin variant mSA2; experiment: fluorescent binding curve, labeled mSA2 in 50% blood serum, 4 h; quadratic fit
streptavidin [7] = target: T1, streptavidin; experiment: sandwich assay, SA in 50% blood serum, detection with biotin-HRP and TMB
Protocol: (§2) Each well was submerged in 1 mL of 1% BSA in Milli-Q water, and the 12-well plate was incubated at 37° C. for 30 minutes. The wells were rinsed twice by adding 2 mL of Milli-Q water and gently shaking the well plate at 70 rpm for 5 minutes. 1 mL of streptavidin diluted in PBS, urine, or blood serum (prepared as described in the Fluorescent Assays section) containing 0.1% BSA was then added to each well, and the well plate was shaken at 70 rpm for 4 hours at room temperature. Wells were rinsed twice with 2 mL of Milli-Q water then twice with 2 mL of 0.1% BSA in Milli-Q water by shaking at 70 rpm for 5 minutes. After rinsing, wells were submerged in 1 mL of 200 ng/mL biotin-HRP in Milli-Q water containing 0.1% BSA, and the well plate was shaken at 70 rpm for 1 hour at room temperature. Wells were then rinsed with water and 0.1% BSA as described previously. 1 mL of solution from a Pierce TMB substrate kit (Thermo Fisher Scientific) was added to each well, and the well plate was shaken vigorously at 125 rpm for 15 minutes at room temperature. 1 mL of 2M H2SO4 was added to each well, and the absorbance at 450 nm was read using a Tecan Infinite M200 PRO plate reader.
(§3) The general procedure for this proof-of-concept experiment is diagrammed in FIG. 28. Films were first exposed to SA solutions and rinsed to remove unbound analyte. Taking advantage of the strong interaction between SA and biotin, thin films were then submerged in a solution of biotinylated horseradish peroxidase (biotin-HRP). Bound SA was detected colorimetrically through the HRP-mediated oxidation of 3,3′,5,5′-tetramethylbenzidine (TMB). Attempts to perform this assay using mSA2 as the analyte were unsuccessful, even when run on an rcSso7d.SA monolayer.

streptavidin [8] = target: T1, streptavidin; experiment: fluorescent binding assay, labeled SA in 50% urine on thin film, 4 h exposure
[9] = target: monomeric streptavidin variant mSA2; experiment: apparent Kd (Kd,app); fluorescent binding curve, labeled mSA2 in 50% blood serum, 4 h; quadratic fit
streptavidin [10] = target: T1, streptavidin; experiment: fluorescent binding curve, labeled SA in 50% blood serum, 4 h; quadratic fit
[11] = target: monomeric streptavidin variant mSA2; experiment: apparent Kd (Kd,app); fluorescent binding curve, labeled mSA2 in 50% urine, 4 h; quadratic fit
[12] = target: monomeric streptavidin variant mSA2; experiment: fluorescent binding curves, labeled mSA2 in 50% urine or 50% blood serum, 4 h
[13] = target: monomeric streptavidin variant mSA2; experiment: fluorescent binding assay, labeled mSA2 in 50% blood serum on thin film, 4 h exposure
Protocol: as §1, with “After 1 hour, films were thoroughly rinsed with water for 10 seconds (a time determined to be sufficient to remove unbound molecules from the film, see FIG. 33, dried under filtered airflow, and immediately analyzed for fluorescent signal.” left out
(§4) To evaluate how the apparent size-based diffusion properties translated to biosensing capabilities, binding curves were measured using SA and mSA2 solutions in buffer. Binding curves were fit with a quadratic model that is a function of three parameters: the average MFI per binding event a, the total concentration of binding sites [P]T, and the apparent dissociation constant K_{d,app} describing the binding equilibrium between analyte and binding sites within the thin film.

streptavidin [14] = target: T1, streptavidin; experiment: sandwich assay: SA in 50% urine, biotin-HRP/TMB detection
Protocol: as §2, §3

streptavidin [15] = target: T1, streptavidin; experiment: fluorescent binding curve, labeled SA in 50% urine, 4 h; quadratic fit
streptavidin [16] = target: T1, streptavidin; experiment: fluorescent binding assay, labeled SA in 50% blood serum on thin film, 4 h exposure
streptavidin [17] = target: T1, streptavidin; experiment: apparent Kd (Kd,app); fluorescent binding curve, labeled SA in 50% urine, 4 h; quadratic fit
[18] = target: monomeric streptavidin variant mSA2; experiment: fluorescent binding curve, labeled mSA2 in 50% urine, 4 h; quadratic fit
streptavidin [19] = target: T1, streptavidin; experiment: sandwich assay: SA in 50% blood serum, biotin-HRP/TMB detection
Protocol: as §2, §3

[20] = target: monomeric streptavidin variant mSA2; experiment: fluorescent binding assay, labeled mSA2 in 50% urine on thin film, 4 h exposure
Protocol: as §1, with “After 1 hour, films were thoroughly rinsed with water for 10 seconds (a time determined to be sufficient to remove unbound molecules from the film, see FIG. 33, dried under filtered airflow, and immediately analyzed for fluorescent signal.” left out
as §4

T1 sequence (P22629 37-163 limits assumed): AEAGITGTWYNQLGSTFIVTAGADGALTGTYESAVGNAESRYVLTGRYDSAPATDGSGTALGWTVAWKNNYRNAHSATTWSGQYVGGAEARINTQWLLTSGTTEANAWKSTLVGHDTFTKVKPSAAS

B1: 2xSP25k thin film (2x rcSso7d.SA-PNIPAM conjugate, 25 kDa PNIPAM) (designed binder)
chain: MGSSHHHHHHSSGLVPRGSHMCATVKFTYQGEEKQVDISKIKIVARDGQYIDFKYDEGGGAYGYGWVSEKDAPKELLQMLEKQGGGGSGGGGSMATVKFTYQGEEKQVDISKIKIVARDGQYIDFKYDEGGGAYGYGWVSEKDAPKELLQMLEKQGG
modifications: maleimide end-functionalized PNIPAM (25 kDa) on the N-terminal Cys; film lightly crosslinked with glutaraldehyde
notes: Two rcSso7d.SA repeats joined by a (G4S)2 linker in one chain
With B1 the “Calculated Density (density of binding sites within a cross-sectional area of the film)” value [1] was 43, the “Calculated Ratio (film thickness x [P]T relative to the 1xSP25k thin film)” value [1] was 0.9 and the “limit of detection (LOD)” value [2] was 200 nM. The binding result (streptavidin [3]) was “binds” and the “[P]T (total concentration of accessible binding sites)” value [4] was 3.3 µM.

B2: 3xSP30.3k thin film (3x rcSso7d.SA-PNIPAM conjugate, PNIPAM Mn 30.3 kDa) (designed binder)
chain: MGSSHHHHHHSSGLVPRGSHMCATVKFTYQGEEKQVDISKIKIVARDGQYIDFKYDEGGGAYGYGWVSEKDAPKELLQMLEKQGGGGSGGGGSMATVKFTYQGEEKQVDISKIKIVARDGQYIDFKYDEGGGAYGYGWVSEKDAPKELLQMLEKQGGGGSGGGGSMATVKFTYQGEEKQVDISKIKIVARDGQYIDFKYDEGGGAYGYGWVSEKDAPKELLQMLEKQGG
modifications: maleimide end-functionalized PNIPAM (Mn 30.3 kDa) on the N-terminal Cys; film lightly crosslinked with glutaraldehyde
With B2 the Kd (streptavidin [5]) was 40 µM, the “[P]T (total concentration of binding sites)” value [6] was 5.7 nM and the “LOD relative to rcSso7d.SA monolayer” value (streptavidin [7]) was 2 fold. The “Limit of Detection” value (streptavidin [8]) was 1100 nM, the Kd [9] was 20 µM and the “[P]T (total concentration of binding sites)” value (streptavidin [10]) was 0.23 nM. For the same binder, the Kd [11] was 29 µM, the “LOD relative to rcSso7d.SA monolayer” value [12] was 2 orders of magnitude lower and the “Limit of Detection” value [13] was 25 nM. For the same binder, the LOD (streptavidin [14]) was 28 nM, the “[P]T (total concentration of binding sites)” value (streptavidin [15]) was 0.27 nM and the “Limit of Detection” value (streptavidin [16]) was 1800 nM. For the same binder, the Kd (streptavidin [17]) was 30 µM, the “[P]T (total concentration of binding sites)” value [18] was 16 nM and the LOD (streptavidin [19]) was 87 nM. The “Limit of Detection” value [20] was 12 nM.

B3: 1xSP25k thin film (1x rcSso7d.SA-PNIPAM conjugate, 25 kDa PNIPAM) (designed binder)
chain: MGSIHHHHHHSSGLVPRGSHMCATVKFTYQGEEKQVDISKIKIVARDGQYIDFKYDEGGGAYGYGWVSEKDAPKELLQMLEKQ
modifications: maleimide end-functionalized PNIPAM (25 kDa) on the N-terminal Cys; film lightly crosslinked with glutaraldehyde
B3 was tested, and the “Calculated Density (density of binding sites within a cross-sectional area of the film)” value [1] was 48, the “Calculated Ratio (film thickness x [P]T relative to the 1xSP25k thin film)” value [1] was 1 and the “limit of detection (LOD)” value [2] was 290 nM. For the same binder, the “[P]T (total concentration of accessible binding sites)” value [4] was 3.1 µM.
